Reference: paper PMC3785136

Target: human telomerase reverse transcriptase hTERT (WT) (human) (UniProt O14746)
Assay: sucrose gradient sedimentation

stoichiometry N: 2
Substance: human telomerase reverse transcriptase hTERT (WT) (from UniProt O14746 1-1132) (enzyme)
